From patent publication US20150344570A1 (published 2015)

B1: GpH7-A5/GpH7-B3 variant S298_11K/GpL16-k0 (antibody, human IgG1, kappa)
heavy 1: not shown
heavy 2: not shown
light: DIVMTQSPLSLPVTPGEPASISCQASESLVHSNRNTYLHWYLQKPGQSPQLLIYKVSNRFSGVPDRFSGSGSGTDFTLKISRVEAEDVGVYYCSQNTHVPPTFGQGTKVEIERTVAAPSVFIFPPSDEQLKSGTASVVCLLNNFYPREAKVQWKVDNALQSGNSQESVTEQDSKDSTYSLSSTLTLSKADYEKHKVYACEVTHQGLSSPVTKSFNRGEC
notes: also called He Ab S298_11K
B2: GpH7-A5/GpH7-B3 variant P271_04F/GpL16-k0 (antibody, human IgG1, kappa)
heavy 1: not shown
heavy 2: not shown
light: B1 light
notes: also called He Ab P271_04F
B3: GpH7-A5/GpH7-B3 variant P271_06M/GpL16-k0 (antibody, human IgG1, kappa)
heavy 1: not shown
heavy 2: not shown
light: B1 light
notes: also called He Ab P271_06M
B4: GpH7-A5/GpH7-B3 variant P271_07I/GpL16-k0 (antibody, human IgG1, kappa)
heavy 1: not shown
heavy 2: not shown
light: B1 light
notes: also called He Ab P271_07I
B5: GpH7-A5/GpH7-B3 variant P271_11K/GpL16-k0 (antibody, human IgG1, kappa)
heavy 1: not shown
heavy 2: not shown
light: B1 light
notes: also called He Ab P271_11K
B6: GpH7-A5/GpH7-B3 variant P271_12R/GpL16-k0 (antibody, human IgG1, kappa)
heavy 1: not shown
heavy 2: not shown
light: B1 light
notes: also called He Ab P271_12R
B7: GpH7-A5/GpH7-B3 variant P271_13S/GpL16-k0 (antibody, human IgG1, kappa)
heavy 1: not shown
heavy 2: not shown
light: B1 light
notes: also called He Ab P271_13S
B8: GpH7-A5/GpH7-B3 variant P271_20W/GpL16-k0 (antibody, human IgG1, kappa)
heavy 1: not shown
heavy 2: not shown
light: B1 light
notes: also called He Ab P271_20W
B9: GpH7-A5/GpH7-B3 variant Q295_02A/GpL16-k0 (antibody, human IgG1, kappa)
heavy 1: not shown
heavy 2: not shown
light: B1 light
notes: also called He Ab Q295_02A
B10: GpH7-A5/GpH7-B3 variant Q295_03V/GpL16-k0 (antibody, human IgG1, kappa)
heavy 1: not shown
heavy 2: not shown
light: B1 light
notes: also called He Ab Q295_03V
B11: GpH7-A5/GpH7-B3 variant Q295_04F/GpL16-k0 (antibody, human IgG1, kappa)
heavy 1: not shown
heavy 2: not shown
light: B1 light
notes: also called He Ab Q295_04F
B12: GpH7-A5/GpH7-B3 variant Q295_05P/GpL16-k0 (antibody, human IgG1, kappa)
heavy 1: not shown
heavy 2: not shown
light: B1 light
notes: also called He Ab Q295_05P
B13: GpH7-A5/GpH7-B3 variant Q295_07I/GpL16-k0 (antibody, human IgG1, kappa)
heavy 1: not shown
heavy 2: not shown
light: B1 light
notes: also called He Ab Q295_07I
B14: GpH7-A5/GpH7-B3 variant Q295_08L/GpL16-k0 (antibody, human IgG1, kappa)
heavy 1: not shown
heavy 2: not shown
light: B1 light
notes: also called He Ab Q295_08L
B15: GpH7-A5/GpH7-B3 variant Q295_13S/GpL16-k0 (antibody, human IgG1, kappa)
heavy 1: not shown
heavy 2: not shown
light: B1 light
notes: also called He Ab Q295_13S
B16: GpH7-A5/GpH7-B3 variant Q295_14T/GpL16-k0 (antibody, human IgG1, kappa)
heavy 1: not shown
heavy 2: not shown
light: B1 light
notes: also called He Ab Q295_14T
B17: GpH7-A5/GpH7-B3 variant Q295_18N/GpL16-k0 (antibody, human IgG1, kappa)
heavy 1: not shown
heavy 2: not shown
light: B1 light
notes: also called He Ab Q295_18N
B18: GpH7-A5/GpH7-B3 variant S239_01G/GpL16-k0 (antibody, human IgG1, kappa)
heavy 1: not shown
heavy 2: not shown
light: B1 light
notes: also called He Ab S239_01G
B19: GpH7-A5/GpH7-B3 variant S239_09D/GpL16-k0 (antibody, human IgG1, kappa)
heavy 1: not shown
heavy 2: not shown
light: B1 light
notes: also called He Ab S239_09D
B20: GpH7-A5/GpH7-B3 variant S239_14T/GpL16-k0 (antibody, human IgG1, kappa)
heavy 1: not shown
heavy 2: not shown
light: B1 light
notes: also called He Ab S239_14T
B21: GpH7-A5/GpH7-B3 variant S239_18N/GpL16-k0 (antibody, human IgG1, kappa)
heavy 1: not shown
heavy 2: not shown
light: B1 light
notes: also called He Ab S239_18N
B22: GpH7-A5/GpH7-B3 variant S239_19Q/GpL16-k0 (antibody, human IgG1, kappa)
heavy 1: not shown
heavy 2: not shown
light: B1 light
notes: also called He Ab S239_19Q
B23: GpH7-A5/GpH7-B3 variant S267_01G/GpL16-k0 (antibody, human IgG1, kappa)
heavy 1: not shown
heavy 2: not shown
light: B1 light
notes: also called He Ab S267_01G
B24: GpH7-A5/GpH7-B3 variant S267_02A/GpL16-k0 (antibody, human IgG1, kappa)
heavy 1: not shown
heavy 2: not shown
light: B1 light
notes: also called He Ab S267_02A
B25: GpH7-A5/GpH7-B3 variant S267_03V/GpL16-k0 (antibody, human IgG1, kappa)
heavy 1: not shown
heavy 2: not shown
light: B1 light
notes: also called He Ab S267_03V
B26: GpH7-A5/GpH7-B3 variant S267_08L/GpL16-k0 (antibody, human IgG1, kappa)
heavy 1: not shown
heavy 2: not shown
light: B1 light
notes: also called He Ab S267_08L
B27: GpH7-A5/GpH7-B3 variant S267_09D/GpL16-k0 (antibody, human IgG1, kappa)
heavy 1: not shown
heavy 2: not shown
light: B1 light
notes: also called He Ab S267_09D

Target: T1, FcγRIa (human, UniProt P12314 16-292)
T1 construct: extracellular domain; Soluble extracellular domain expressed in FreeStyle293 cells, used as analyte in Biacore; also called FcgRI; 1a; not shown: His tag attached to the C terminus
Assay: SPR (Biacore); He Ab vs HeCon Ab GpH7-A5/GpH7-B3/GpL16-k0
Experimental: Analysis of interaction between objective antibody and the FcγR was carried out using Biacore T100 (GE Healthcare). HBS-EP+ (GE Healthcare) was used as the running buffer, and the measurement temperature was set to 25° C. Chips produced by immobilizing the antigen peptide by the amine coupling method to a Series S Sencor Chip CM5 (GE Healthcare), or alternatively, chips produced by allowing preliminarily biotinylated antigen peptides to interact with and immobilize onto a Series S Sensor Chip SA (certified) (GE Healthcare) were used. Antibodies of interest were captured onto an antigen peptide-immobilized chip, and allowed to interact to each FcγR diluted with running buffer. To regenerate and repeatedly use the chip, the antibodies captured on the chip were washed off by reacting 10 mM glycine-HCl, pH 1.5.

T1 sequence (P12314 16-292): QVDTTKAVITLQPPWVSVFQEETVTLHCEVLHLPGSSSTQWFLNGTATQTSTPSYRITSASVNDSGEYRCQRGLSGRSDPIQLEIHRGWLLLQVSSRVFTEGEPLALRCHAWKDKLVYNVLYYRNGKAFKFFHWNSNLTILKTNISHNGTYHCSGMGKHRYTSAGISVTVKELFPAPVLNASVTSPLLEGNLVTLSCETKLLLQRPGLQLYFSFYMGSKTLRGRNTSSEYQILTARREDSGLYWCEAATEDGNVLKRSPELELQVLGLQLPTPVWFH

Row | Binder | He/Con_1a
1 | B1 | 109 relative binding, control = 100
2 | B2 | 102 relative binding, control = 100
3 | B3 | 102 relative binding, control = 100
4 | B4 | 102 relative binding, control = 100
5 | B5 | 103 relative binding, control = 100
6 | B6 | 102 relative binding, control = 100
7 | B7 | 102 relative binding, control = 100
8 | B8 | 103 relative binding, control = 100
9 | B9 | 104 relative binding, control = 100
10 | B10 | 104 relative binding, control = 100
11 | B11 | 102 relative binding, control = 100
12 | B12 | 103 relative binding, control = 100
13 | B13 | 103 relative binding, control = 100
14 | B14 | 105 relative binding, control = 100
15 | B15 | 102 relative binding, control = 100
16 | B16 | 103 relative binding, control = 100
17 | B17 | 102 relative binding, control = 100
18 | B18 | 101 relative binding, control = 100
19 | B19 | 101 relative binding, control = 100
20 | B20 | 101 relative binding, control = 100
21 | B21 | 101 relative binding, control = 100
22 | B22 | 101 relative binding, control = 100
23 | B23 | 103 relative binding, control = 100
24 | B24 | 109 relative binding, control = 100
25 | B25 | 106 relative binding, control = 100
26 | B26 | 101 relative binding, control = 100
27 | B27 | 110 relative binding, control = 100
